This note sets out measurements from US20240317868A1 (Boehringer Ingelheim, published 2024).

Like-named read-outs stand apart in the source and are kept apart here.

The target in test [1] is T1, human IL1RAP (human, UniProt Q9NPH3 21-367, limits assumed, biotinylated in the ELISA screens (site not stated)).
T1 construct: also called huIL1RAP; IL1RAP antigen
T1 sequence (looked up): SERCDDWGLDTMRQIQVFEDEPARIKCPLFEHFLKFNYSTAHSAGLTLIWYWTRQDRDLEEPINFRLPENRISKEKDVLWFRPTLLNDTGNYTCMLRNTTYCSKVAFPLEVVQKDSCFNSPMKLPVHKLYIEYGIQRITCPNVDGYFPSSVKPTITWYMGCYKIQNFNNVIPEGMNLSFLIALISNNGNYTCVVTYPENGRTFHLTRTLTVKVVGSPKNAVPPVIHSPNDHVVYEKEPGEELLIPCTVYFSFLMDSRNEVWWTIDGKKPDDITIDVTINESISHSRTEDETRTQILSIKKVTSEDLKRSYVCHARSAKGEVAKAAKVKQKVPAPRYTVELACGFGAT
Nature of the test: ELISA, antigen titration: Fab (1:5) captured on anti-Fd coat 700 ng/ml (4.7 nM), IL1RAP antigen titrated (the concentration axis is the antigen), SA-HRP 1:4000.

Test [2] addresses T1, human IL1RAP. Nature of the test: hKD, method not stated.
Test [3] concerns the target T1, human IL1RAP. As to the kind of experiment: ELISA: Fab constant (4 nM) captured on Fd coat (67 nM), Biot-hu IL1RAP titrated from 6.8 nM (the concentration axis is the antigen), SA-HRP 1:4000.
In test [4] the target is T1, human IL1RAP. The test is described as above. This is another data set of the same source.

B1: engrafted Fab (GO11 CDRs on IGKV1-39*01 and IGHV1-69*02) (Fab, V domains shown)
VH: QVQLVQSGAEVKKPGSSVKVSCKASGYIFLTYWMNWVRQAPGQGLEWMGQIFPASDSTYYNEMFKDRVTITADKSTSTAYMELSSLRSEDTAVYYCARSGPYSYYAGGYALDYWGQGTLVTVSS
VL: DIQMTQSPSSLSASVGDRVTITCRTSENINSYLAWYQQKPGKAPKLLIYYAKTLAEGVPSRFSGSGSGTDFTLTISSLQPEDFATYYCQHHYGTSLTFGQGTKLEIK
notes: Fab from E. coli periplasmic extract; constant parts not specified; also called HUMANIZED/GRAFT 005-G011 #A1
On to B1, for which the binding result in test [1] is reported as “binds”.

B2: CAN04 (antibody, V domains shown)
VH: QVQLQQSGPELLKPGASVKISCKASGYAFSSSWMNWVKQRPGKGLEWIGRIYPGDGNTHYSGKFKGKATLTADKSSSIAYMQLSSLTSEDSAVYFCGEGYLDPMDYWGQGTSVTVSS
VL: DIQMTQTTSSLSASLGDRVTISCSASQGINNYLNWYQQKPDGTVKLLIHYTSGLHAGVPSRFSGSGSGTDYSLTISNLEPEDVATYYCQQYSILPWTFGGGTKLEIKR
Turning to B2, in test [2], the Kd was determined as 0.2 nM.

B3: IL1RAP G011 chimeric Fab (Fab, V domains shown)
VH: QVHLQQSGPELVRPGTSVKISCEASGYIFLTYWMNWVKQRPGQGLEWIGQIFPASDSTYYNEMFKDKARFTVDKSSSTAYMQFSSLTSEDTAVYFCARSGPYSYYAGGYALDYWGQGTSVTVSS
VL: DIQMTQSPASLSASVGETVTITCRTSENINSYLAWYQQKQGKSPQLLVHYAKTLAEGVPSRFSGSGSGTQFSLKINSLKPEDFGSYYCQHHYGTSLTFGAGTKLELK
notes: Mouse VK and VH fused to human Ck and CH1; expressed in E. coli (periplasmic extract or supernatant); also called mouse Fab; chimeric parent anti-IL1RAP GO11 Fab
In the case of B3, the “EC50 (read off the curve)” value in test [3] and in test [4] was around 0.4 nM throughout.
